Measurements from US20230374114A1 (published 2023).
Read-outs that look alike come from different tables or passages of the source.

Tests used:
Assay in all cases: BLI
[1] = biological target: T1, Biotinylated SARS-CoV-2 S1 protein (ACRO, S1N-C82E8) (UniProt P0DTC2 16-685)
[2] = biological target: T1, Biotinylated SARS-CoV-2 S1 protein …; remark: listed apart in the source
[3] = biological target: T1, Biotinylated SARS-CoV-2 S1 protein …; remark: listed apart in the source
[4] = biological target: T1, Biotinylated SARS-CoV-2 S1 protein …; remark: listed apart in the source
[5] = biological target: T1, Biotinylated SARS-CoV-2 S1 protein …; remark: listed apart in the source
[6] = biological target: T1, Biotinylated SARS-CoV-2 S1 protein …; remark: listed apart in the source

Binder | Kd [1] | Kd [2] | Kd [3] | Kd [4] | Kd [5] | Kd [6]
Ab_17 (scFv, V domains shown) VH: QVQLVQSGGGVVQPGRSLRLSCAASGFTFDDYAMHWVRQVPGKGLEWVSGIDWNSGVIGYADSVKGRFTISRDNVKNSLYLQMNSLRTEDSALYYCAKDIGPGGSGSYYAFDIWGQGTTVTVSS VL: QSALTQPASVSGSPGQSITISCTGTSSDVGGSKYVSWYQQHPGKAPKVMIYDVTKRPSGVPDRFSGSKSGNTASLTISGLQAEDEADYYCAAWDDSLNGVVFGGGTKLTVL | 0.716 nM | 0.716 nM | – | – | – | –
Ab 12 scFv-Fc (S1-R3-T1-H7) (scFv, V domains shown) VH: EVQLVESGPGVVSPSATLFLTCSVSGGSIRTHSWNWIRQPPGKPLEWIGFIHHSGATNKNPSLKSRVTISSDTSKNEFSLTLTSVTAADTAVYYCARGPGILSYWSRGTLVTVSS VL: not shown | – | < 0.001 nM | < 0.001 nM | < 0.001 nM | < 0.001 nM | < 0.001 nM
Ab 28 scFv-Fc (scFv, V domains shown) VH: QVTLKESGPGLVNPSETLSLTCTVSGASISNSFWSWIRQSPGKGLEWIGYTSYSGNSIYNPSLKSRLTMSIDTSKNQLSLNLRSLTAADTAVYYCARREWIKGHFDYWGQGTLVTVSS VL: NFMLTQPHSVSESPGKTVTISCTGSGGSIASNYVQWYQQRPGSAPTTVIYEDNQRPSGVPDRFSGSIDSSSNSASLTISGLKTEDEADYYCQSYDSSNPVVFGGGTKLTVL | < 0.001 nM | < 0.001 nM | – | – | – | –
Ab 23 scFv-Fc (scFv, V domains shown) VH: EVQLVQSGAEVKKPGSSVKVSCRSSGGTFSTYGITWVRQAPGQGLEWMGRIIPSLGIPNYAQKFQGRVTITADTSVSTAWMELSSLESDDTAIYYCARENIDLATNDFWGQGTLVTVSS VL: QSALTQPPSASGSPGQSVTISCTGTSRDIGAYGYVSWYQQVPGKAPKLIIYEVRNRPSGVSSRFSGSKSGNTASLTISGLQAEDEADYYCSSYTSSSTLDVVFGGGTKLTVL | 0.338 nM | 0.338 nM | – | – | – | –
